Data set [1] deals with T1, C-SBP2 (human, UniProt Q96T21 515-854).
T1 sequence: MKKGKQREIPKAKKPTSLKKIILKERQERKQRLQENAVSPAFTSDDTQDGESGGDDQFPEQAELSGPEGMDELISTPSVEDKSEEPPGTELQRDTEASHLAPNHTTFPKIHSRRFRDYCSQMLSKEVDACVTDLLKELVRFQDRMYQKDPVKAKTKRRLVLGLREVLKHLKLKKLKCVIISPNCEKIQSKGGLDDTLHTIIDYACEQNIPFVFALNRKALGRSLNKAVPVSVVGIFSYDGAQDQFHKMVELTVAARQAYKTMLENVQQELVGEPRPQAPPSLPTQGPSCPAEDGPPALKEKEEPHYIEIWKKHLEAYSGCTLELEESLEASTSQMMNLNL
In words: EMSA. For orientation: Mobility shift assays separate free from complexed probe on a gel.

For data set [2], the target named is T2, Snu13p (yeast, UniProt P39990 1-126).
T2 sequence: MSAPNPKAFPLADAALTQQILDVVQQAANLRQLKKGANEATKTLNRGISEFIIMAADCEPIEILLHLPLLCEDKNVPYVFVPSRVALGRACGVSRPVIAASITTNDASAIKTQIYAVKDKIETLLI
In words: competition.

Data set [3] deals with T1, C-SBP2. In words: EMSA. The source holds these as a separate data set.
Data set [4] addresses T2, Snu13p. Kind of data set: EMSA.
The target in data set [5] is T1, C-SBP2. In words: EMSA. This is another data set of the same source.
The target in data set [6] is T2, Snu13p. Kind of data set: EMSA. The source holds these as a separate data set.
Data set [7] concerns the target T2, Snu13p. Kind of data set: EMSA. This is another data set of the same source.
The target in data set [8] is T1, C-SBP2. Kind of data set: EMSA. The source holds these as a separate data set.

Where a chain is given by its changes, count along the chain named. Like-named read-outs stand apart in the source and are kept apart here.

B1: Se1:Ins + loop (structured_RNA)
RNA: GGACCUUUGUACCCCAGUUUAUGAUGGAUCUUCACUGAUCUUGAUCCCCUGGGUACAAAUGGCAG
Take B1: the binding signal in data set [1] was 4 fold higher affinity than Se1. In addition, the binding result in data set [2] was “binds”.

B2: Se3 (structured_RNA)
RNA: GGACCUUUGUACCCCAGAUGAUGCUUUAUCAGGCGGAUGGGUACAAAUGGCAG
As to B2, the binding result in data set [3] is recorded as “binds”.

B3: Se1:Ins (structured_RNA)
RNA: GGACCUUUGUACCCCAGAUGAUGGGCCUUCACUGGCCUUGAUGGGUACAAAUGGCAG
The term Kd denotes the free concentration of one partner at which half of the binding sites on the other are occupied at equilibrium, for simple one-to-one binding. Lower therefore signals a tighter complex. Turning to B3, the Kd in data set [4] came to 25 nM; in data set [5] it was 300 nM.

B4: Se2 (structured_RNA)
RNA: GGACCUUUGUACCCCAGAUGACGGCUCAUUUCGUGCUUGAUGGGUACAAAUGGCAG
In the case of B4, the binding result in data set [3] is recorded as “binds”.

B5: Se4 (structured_RNA)
RNA: GGACCUUUGUACCCCAGAUGAUAGUAAAGCGCGGCUUGAUGGGUACAAAUGGCAG
B5: in data set [3], the binding result is reported as “binds”.

B6: Se6 (structured_RNA)
RNA: B5 RNA with A28G
Consider B6, for which the binding result in data set [3] is “binds”.

B7: Se5 (structured_RNA)
RNA: B5 RNA with A26G, A28G
B7: the binding result in data set [3] is listed as “binds”.

B8: Se1 (G-C)5 to (G.G)5 (structured_RNA)
RNA: GGACCUUUGUACCCCAGAUGAUGGCUUCACUGGUUGAUGGGUACAAAUGGCAG
Take B8: in data set [6], the binding signal was ~20 fold lower affinity than Se1.

B9: Se1 (structured_RNA)
RNA: B8 RNA with G33C
Turning to B9, the values for the Kd in data set [7] and in data set [8] were 35 nM and 500 nM, respectively.

Source of the values: article PMC1874613.
